This note sets out measurements from article PMC3991615, “The N-Terminal Domain of the Repressor of Staphylococcus aureus Phage Φ11 Possesses an Unusual Dimerization Ability and DNA Binding Affinity”.

For data set [1], the target named is T1, rCI (phage phi11 CI lysogenic repressor) (Staphylococcus aureus phage phi11) (UniProt Q8SDX2).
T1 sequence: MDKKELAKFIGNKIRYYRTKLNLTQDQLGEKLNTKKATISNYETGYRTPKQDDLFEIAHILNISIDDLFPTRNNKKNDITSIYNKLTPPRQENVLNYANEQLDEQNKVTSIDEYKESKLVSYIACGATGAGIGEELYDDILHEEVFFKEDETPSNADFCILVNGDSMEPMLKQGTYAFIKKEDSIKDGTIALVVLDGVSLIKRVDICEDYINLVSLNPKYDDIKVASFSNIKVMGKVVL
Nature of the data set: EMSA. Conditions: EMSA with ~0.1 nM 32P-DNA, 20 min on ice (0°C) unless 42°C; RNAP assay and protein storage in buffer C (10 mM Tris-HCl pH 8.0, 200 mM NaCl, 1 mM EDTA, 5% …).

Data set [2] deals with T2, rNTD (N-terminal domain of phage phi11 CI repressor) (Staphylococcus aureus phage phi11) (UniProt Q8SDX2).
T2 sequence: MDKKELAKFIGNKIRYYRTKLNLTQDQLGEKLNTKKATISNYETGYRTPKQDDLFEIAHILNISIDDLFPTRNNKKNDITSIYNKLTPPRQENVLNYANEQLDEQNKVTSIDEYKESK
Kind of data set: EMSA. Conditions: EMSA with ~0.1 nM 32P-DNA, 20 min on ice (0°C) unless 42°C; RNAP assay and protein storage in buffer C (10 mM Tris-HCl pH 8.0, 200 mM NaCl, 1 mM EDTA, 5% …).

Data set [3] concerns the target T2, rNTD (N-terminal domain of phage phi11 CI repressor) (Staphylococcus aureus phage phi11). Kind of data set: DMS footprinting. Conditions: EMSA with ~0.1 nM 32P-DNA, 20 min on ice (0°C) unless 42°C; RNAP assay and protein storage in buffer C (10 mM Tris-HCl pH 8.0, 200 mM NaCl, 1 mM EDTA, 5% …). In general terms: Mobility shift assays separate free from complexed probe on a gel.

Data set [4] concerns the target recombinant N-terminal domain (NTD) of the Φ11 lysogenic repressor CI (Staphylococcus aureus phage Φ11). Nature of the data set: cross-linking; glutaraldehyde (0.1%), 1-5 µM protein, products analysed by 13.5% SDS-PAGE.
The target is the same in data set [5]. Kind of data set: SEC; analytical gel filtration, 10 µM protein in buffer C (10 mM Tris-HCl pH 8.0, 200 mM NaCl, 1 mM EDTA, 5% glycerol) with 10 mM β-mercaptoethanol; calibrated with conalbumin, ovalbumin, carbonic anhydrase, cytochrome C. For orientation: SEC sorts molecules by how far they enter the pores of the column.
For data set [6], the target named is Φ11 CI with a C-terminal histidine tag (Staphylococcus aureus phage Φ11). Nature of the data set: cross-linking; glutaraldehyde (0.1%), 1-5 µM protein, products analysed by 13.5% SDS-PAGE.
Data set [7] has the same target. Nature of the data set: SEC; analytical gel filtration, 10 µM protein in buffer C (10 mM Tris-HCl pH 8.0, 200 mM NaCl, 1 mM EDTA, 5% glycerol) with 10 mM β-mercaptoethanol; calibrated with conalbumin, ovalbumin, carbonic anhydrase, cytochrome C.
The target in data set [8] is T3, rCI (phage phi11 CI lysogenic repressor) (Staphylococcus aureus phage phi11, UniProt Q8SDX2 1-239).
T3 sequence: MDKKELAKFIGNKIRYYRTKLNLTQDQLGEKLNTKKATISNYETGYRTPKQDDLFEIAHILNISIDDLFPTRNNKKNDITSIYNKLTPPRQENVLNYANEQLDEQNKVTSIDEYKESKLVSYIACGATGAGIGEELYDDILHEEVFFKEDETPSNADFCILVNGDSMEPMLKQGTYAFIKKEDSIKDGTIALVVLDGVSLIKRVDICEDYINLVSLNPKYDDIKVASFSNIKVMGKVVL
Kind of data set: EMSA; 0°C (on ice); EMSA with ~0.1 nM 32P-DNA, 20 min on ice (0°C) unless 42°C; RNAP assay and protein storage in buffer C (10 mM Tris-HCl pH 8.0, 200 mM NaCl, 1 mM EDTA, 5% glycerol); standard EMSA buffer not printed (per refs 7, 8); native PAGE 6% or 10%. Conditions: protein: recombinant; tags: C-terminal His tag; chain copies: 2; label: 32P; 3' overhang 1 nt (both ends).

Data set [9] deals with T4, rNTD (N-terminal domain of phage phi11 CI repressor) (Staphylococcus aureus phage phi11, UniProt Q8SDX2 1-118).
T4 sequence: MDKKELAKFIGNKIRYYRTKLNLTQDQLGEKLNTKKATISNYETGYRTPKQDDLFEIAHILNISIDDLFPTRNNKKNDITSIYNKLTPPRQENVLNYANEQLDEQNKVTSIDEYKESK
The data set is described as above. As to conditions: protein: recombinant, tags: C-terminal His6 (8 additional residues), chain copies: 2, label: 32P.

Regarding “ATTCAACAAAAAAATACACGAAAAGCAAACTTTTATGTTGACTCAAGTACACGTATCGTGTATAGTAGGTTTTGTAAGCGGGAGGTGACAACATGCAATGGAATTTAATAAAGTTGAGAAAAGAAAGAAAGTGTACTCAAGAAGATTTAGGATCC (double strand) [O1O2]”, the binding entry in data set [1] and in data set [2] was “binds” throughout.

As for “CTCGAGCATTTTAACTACGTTTGCAGCTTGCTCGCCACGGTCGCCTTCAACGATGTCGAATTCAACTTTTTGGCCTTCTTCTAATGATTTGTATCCATCTTCAGCGATTGCTGAGAAGTGTACGAATACGTCGCTACCATCTTCTCTTTCGATGAAACCAAAACCTTTTTCTGCATTAAACCATTTAACTGTACCGTTATTCATCCATGGCATG (double strand) [cspC]”, the binding entry in data set [2] is listed as “no binding”. Regarding “GGATCCTAAATCTTCTTGAGTACACTTTCTTTCTTTTCTCAACTTTATTAAATTCCATTGCATGTTGTCACCTCCCGCTTACAAAACCTACTATACACGATACGTGTACTTGAGTCAACATAAAAGTTTGCTTTTCGTGTATTTTTTTGTTGAATACCAAAAATAATTGGGTTATACTATAGGTAAATTTAAGGAGGTAAGAAAATGGATAAAAAAGAATTAGCGAAATTTATAGGCAATAAAATCAGATACTATAGAACCAAGAATTC (double strand) [O]”, the binding result in data set [2] and in data set [3] was “binds” in each case. Broadly, the stoichiometry N is the number of molecules, sites or subunits per partner or assembly. Turning to “recombinant N-terminal domain (NTD) of the Φ11 lysogenic repressor CI (domain or fragment)”, the stoichiometry N in data set [4] and in data set [5] was 2 throughout. “Φ11 CI with a C-terminal histidine tag (natural protein)”: the stoichiometry N in data set [6] and in data set [7] was 2 each time.

B1: O1 (dsDNA)
DNA 1: GACTCAAGTACACGTATCGTGTATAGTAGGTTTA
DNA 2: AAACCTACTATACACGATACGTGTACTTGAGTCA
For orientation: Kd means the free concentration of one partner at which half of the binding sites on the other are occupied at equilibrium, for simple one-to-one binding. As for B1, the Kd in [8] turned out to be 3.17 ± 0.75 nM; in data set [9] (3' overhang 1 nt (both ends)) it was 3.13 ± 0.51 nM.

B2: O2 (dsDNA)
DNA 1: ATTCAACAAAAAAATACACGAAAAGCAAACTTTTATGTTGACTCAAGTA
DNA 2: TACTTGAGTCAACATAAAAGTTTGCTTTTCGTGTATTTTTTTGTTGAAT
Regarding B2, in data set [9] (blunt), the Kd was 7.83 ± 0.44 nM.
